Publication PMC10000358, “Development of an inhibiting antibody against equine interleukin 5 to treat insect bite hypersensitivity of horses” (Scientific Reports, 2023)
Where “and” joins values, the source holds several entries; their conditions need not be identical. Equal entries are not always repeated.

T1: equine interleukin 5 with 8 × His-tag (equine (horse), UniProt O02699 20-134)
T1 chain: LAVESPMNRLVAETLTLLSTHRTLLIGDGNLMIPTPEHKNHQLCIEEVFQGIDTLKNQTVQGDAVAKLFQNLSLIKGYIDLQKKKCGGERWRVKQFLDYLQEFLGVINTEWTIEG


How the values were obtained:
[1] = target: T2, equine interleukin 5 with 8 × His-tag (Equus caballus, UniProt O02699)
[2] = target: T3, BSA (Bos taurus, UniProt P02769); test: ELISA; unspecificity ELISA: antigens immobilised at 10 ug/mL in PBS, blocked with 2% MPBST; 100 nM eqIgG6 antibody, 1 h at RT; detected with anti horse IgG (Fc)-HRP; conditions: both partners purified
T3 construct: BSA (serum albumin), negative control coated on the plate

[3] = target: T2, equine interleukin 5 with 8 × His-tag; test: flow cytometry on cells; cellular in vitro inhibition assay: antibody (screening 1000 nM; titration 1000 nM-0.32 nM) pre-incubated with 5 nM eqIL-5 (related to dimer), then added to 5 x 10^5 eqIL-5 receptor expressing Expi293F cells for 45 min on ice, FACS buffer (2% FCS, 5 mM EDTA in PBS); bound eqIL-5 detected by Penta-His antibody and anti mouse Fc-APC; IC50 by Logistic5 fit; single measurements; conditions: both partners purified
[4] = target: T2, equine interleukin 5 with 8 × His-tag; test: flow cytometry on cells; competitive cellular inhibition assay: no pre-incubation; 1000 nM-0.1 nM antibody first put on 5 x 10^5 receptor expressing cells, then 5 nM eqIL-5 (related to dimer) added for 45 min on ice; detection as before; conditions: both partners purified
[5] = target: T2, equine interleukin 5 with 8 × His-tag; test: ELISA; titration ELISA: 100 ng eqIL-5/well (or 1% BSA as negative control) immobilised, blocked with 2% MPBST; eqIgG6 antibody titrated from 316 nM, 1 h at RT; detected with anti horse IgG (Fc)-HRP; EC50 by Logistic5 fit; triplicates; conditions: both partners purified
[6] = target: T1, equine interleukin 5 with 8 × His-tag; test: ELISA
[7] = target: T3, BSA; test: ELISA; titration ELISA: 100 ng eqIL-5/well (or 1% BSA as negative control) immobilised, blocked with 2% MPBST; eqIgG6 antibody titrated from 316 nM, 1 h at RT; detected with anti horse IgG (Fc)-HRP; EC50 by Logistic5 fit; triplicates; conditions: both partners purified

T3 sequence (P02769 25-607): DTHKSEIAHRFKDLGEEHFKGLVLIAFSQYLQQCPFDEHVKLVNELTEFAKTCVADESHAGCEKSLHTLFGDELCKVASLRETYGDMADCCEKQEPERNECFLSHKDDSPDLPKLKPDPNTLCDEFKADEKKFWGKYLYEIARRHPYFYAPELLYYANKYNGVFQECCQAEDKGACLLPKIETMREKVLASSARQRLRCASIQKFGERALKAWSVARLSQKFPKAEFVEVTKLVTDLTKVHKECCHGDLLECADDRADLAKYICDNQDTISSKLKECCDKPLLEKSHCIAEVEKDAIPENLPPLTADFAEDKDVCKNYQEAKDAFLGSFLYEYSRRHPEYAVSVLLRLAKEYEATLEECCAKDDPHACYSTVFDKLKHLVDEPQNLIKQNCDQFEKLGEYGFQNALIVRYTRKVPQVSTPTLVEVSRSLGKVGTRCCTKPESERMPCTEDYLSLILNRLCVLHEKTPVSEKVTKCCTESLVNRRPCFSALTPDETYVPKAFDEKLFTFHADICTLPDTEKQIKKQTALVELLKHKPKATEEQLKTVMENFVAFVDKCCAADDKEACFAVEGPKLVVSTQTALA

binding result [1]	IC50 [3]	EC50 [5] [nM]	EC50 [6] [nM]	binding result [7]	Binder	further results
binds					NOL226-2-G9 (antibody, V domains shown) VH: EVQLEETGGGVVQPGRSLRLSCAASGFTFGSYGMHWVRQAPGKGLEWVAVISYDGSNKYYADSVKGRFTISRDNSKNTLYLQMNSLRAEDTAVYYCAKGFKIQLWFAAFDIWGQGTMVTVSS VL: QSVLTQPPSISVAPGQTARITCGGNNIGSKSVHWYHQKPGQAPVLVVYDDSDRPSGIPERFSGSNSGNTATLTISRVEAGDEADYYCQVWDSSSDPVVFGGGTKLTVL	
binds					NOL229-C3 (antibody, V domains shown) VH: EVQLVETGGGVVQPGRSLRLSCAASGFTFRSYGMHWVRQAPGKGLEWVAVISNDGSNKYYADSVKGRFTISRDNSKNTLYLQMNSLRAEDTAVYYCAKGFKIQLWFAAFDIWGQGAMVTVSS VL: QSVLTQPPSVSVAPGQTARITCGGNNIGSKSVHWYQQKPGQAPVLVVYDDSDRPSGIPERFSGSNTGNTATLTISRVEAGDEADYYCQVWDSSSDPVVFGGGTKLTVL	
	4 nM	8.8			NOL226-2-D10 (eqIgG6 format) (antibody, V domains shown, as the VH of m4 (NOL162-1-F5) with A97V and F100L, both in the CDR3 of the VH; as the VL of m4 (NOL162-1-F5); also called final antibody; final candidate; source: Expi293F suspension cells, purified (HiTrap Fibro PrismA or Protein G HP)) VH: EVQLVETGGGVVQPGRSLRLSCAASGFTFSSYGMHWVRQAPGKGLEWVAVISYDGSNKYYADSVKGRFTISRDNSKNTLYLQMNSLRAEDTAVYYCVKGLKIQLWFAAFDIWGQGTMVTVSS VL: QSVLTQPPSVSVAPGQTARITCGGNNIGSKSVHWYQQKPGQAPVLVVYDDSDRPSGIPERFSGSNSGNTATLTISRVEAGDEADYYCQVWDSSSDPVVFGGGTKLTVL	binding result [2]: no binding (tested: 100 nM); IC50 [4]: 9 nM
	7 nM and 12 nM	9			NOL162-1-F5 (eqIgG6 format) (antibody, V domains shown, human VH of NOL162-1-F5 (selected from HAL9/10); human VL of NOL162-1-F5; Chimeric IgG: human VH and VL, all constant domains equine (IgG6); Selected by panning in MTP; also called parental antibody; parAB; source: Expi293F suspension cells, purified (HiTrap Fibro PrismA or Protein G HP)) VH: EVQLVETGGGVVQPGRSLRLSCAASGFTFSSYGMHWVRQAPGKGLEWVAVISYDGSNKYYADSVKGRFTISRDNSKNTLYLQMNSLRAEDTAVYYCAKGFKIQLWFAAFDIWGQGTMVTVSS VL: QSVLTQPPSVSVAPGQTARITCGGNNIGSKSVHWYQQKPGQAPVLVVYDDSDRPSGIPERFSGSNSGNTATLTISRVEAGDEADYYCQVWDSSSDPVVFGGGTKLTVL	binding result [2]: no binding (tested: 100 nM); IC50 [4]: 15 nM
binds					NOL225-2-F10 (antibody, V domains shown) VH: QVQLQQSGGGVVQPGRSLRLSCAASGFTFSSYGMHWVRQAPGKGLEWVAVIWYDGSNKYYADSVKGRFTISRDNSKNTLYLQINSLRAEDTAVYYCARGLYGRSYFDYWGQGTLVTVSS VL: SYELTQPPSVSVAPGQTAKIVCEGDNIGSKSVHWYQQRPGQAPVLVVYDDTDRPSGIPDRFSGSNSGNTATLTISRVEVGDEADYYCQVWDSGDGHPRVFGGGTKLTVL	

Second part, the binder before the results:

Binder	binding result [1]	IC50 [3]	EC50 [5] [nM]	EC50 [6] [nM]	binding result [7]	further results
NOL226-2-D1 (antibody, V domains shown) VH: EVQLVETGGGVVRPGRSLRLSCAASGFTFSSYGMHWVRQAPGKGLEWVAVISYDGSNKYYADSVKGRFTISRDNSKNTLYLQMNSLRAEDTAVYYCVKGFKIQLWFAAFDIWGQGTMVTVSS VL: QSVLTQPPSVSVAPGQTARITCGGNNIGSKSVHWYQQKPGQAPVLVVYDDSDRPSGIPERFSGSNSGNTATLTIGRVESGDEADYYCQVWDSSSDPVVFGGGTKLTVL	binds					
NOL225-2-C1 (eqIgG6 format) (antibody, V domains shown, source: Expi293F suspension cells, purified (HiTrap Fibro PrismA or Protein G HP)) VH: QVQLQQSGGGVVQPGRSLRLSCAASGFTFSSYGMHWVRQAPGKGLEWVAVIWYDGRNKYYADSVKGRFTISRDNSKNTLYLQMNSLRAEDTAVYYCARGLFGRSYFDYWGQGTLVTVSS VL: SYELTQPPSMSVAPGQTARIACEGDNIGSKSVHWYQQRPGQAPVLVVFDDTDRPSGIPDRFSGSNSGNTATLTISRVEVGDEADYYCQVWDSGDGHPRVFGGGTKLTVL		4 nM		0.4	no binding (tested: 316 nM)	
NOL231-2-E2 (eqIgG6 format) (antibody, V domains shown, source: Expi293F suspension cells, purified (HiTrap Fibro PrismA or Protein G HP)) VH: QVQLQQSEGGVVQPGRSLRLSCAASGFTFSSYGMHWVRQAPGKGLEWLAVIWYDGSNKYYADSVKGRFTISRDNSKNTLYLQMNSLRAEDTAVYYCARGLFGRSYFDYWGQGTLVTVSS VL: SYELTQPPSVSVAPGQTAKITCEGDNIGSKSVHWYQQRPGQAPVLVVYDDTDRPSGIPDRFSGSNSGNTATLTISRVEVGDEADYYCQVWDSGDGHPRVFGGGTKLTVL		3 nM		0.5	no binding (tested: 316 nM)	
NOL48-1-D5 (eqIgG6 format) (antibody, V domains shown, human VH of NOL48-1-D5 (selected from HAL9/10); human VL of NOL48-1-D5; Chimeric IgG: human VH and VL, all constant domains equine (IgG6); Selected by panning in solution; also called parental antibody; parAB; source: Expi293F suspension cells, purified (HiTrap Fibro PrismA or Protein G HP)) VH: QVQLQQSGGGVVQPGRSLRLSCAASGFTFSSYGMHWVRQAPGKGLEWVAVIWYDGSNKYYADSVKGRFTISRDNSKNTLYLQMNSLRAEDTAVYYCARGLYGRSYFDYWGQGTLVTVSS VL: SYELTQPPSVSVAPGQTAKIACEGDNIGSKSVHWYQQRPGQAPVLVVYDDTDRPSGIPDRFSGSNSGNTATLTISRVEVGDEADYYCQVWDSGDGHPRVFGGGTKLTVL		6 nM and 12 nM	1		no binding (tested: 316 nM)	
NOL231-1-A3 (eqIgG6 format) (antibody, V domains shown, as the VH of m3 (NOL48-1-D5); as the VL of m3 (NOL48-1-D5) with H96N in the CDR3 of the VL; source: Expi293F suspension cells, purified (HiTrap Fibro PrismA or Protein G HP)) VH: QVQLQQSGGGVVQPGRSLRLSCAASGFTFSSYGMHWVRQAPGKGLEWVAVIWYDGSNKYYADSVKGRFTISRDNSKNTLYLQMNSLRAEDTAVYYCARGLYGRSYFDYWGQGTLVTVSS VL: SYELTQPPSVSVAPGQTAKIACEGDNIGSKSVHWYQQRPGQAPVLVVYDDTDRPSGIPDRFSGSNSGNTATLTISRVEVGDEADYYCQVWDSGDGNPRVFGGGTKLTVL		4 nM		0.5	no binding (tested: 316 nM)	
